In US20260274985A1 (MYTHIC THERAPEUTICS, published 2026):

T1: Human TROP2 Protein, His Tag (Acro Biosystems) (human, UniProt P09758 27-274)
T1 construct: not shown: His tag
T1 sequence (looked up): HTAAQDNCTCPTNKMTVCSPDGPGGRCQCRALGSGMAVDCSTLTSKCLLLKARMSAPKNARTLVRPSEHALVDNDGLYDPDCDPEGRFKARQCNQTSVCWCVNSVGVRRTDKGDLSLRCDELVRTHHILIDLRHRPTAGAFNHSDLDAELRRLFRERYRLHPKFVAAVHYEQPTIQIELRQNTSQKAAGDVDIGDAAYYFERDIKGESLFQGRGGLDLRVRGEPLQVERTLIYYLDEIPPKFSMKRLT

T2: Human TROP2 Protein, His Tag (Acro Biosystems) (human, UniProt P09758 27-274)
T2 construct: Bought antigen used at 50 nM in the Octet screen; also called TACSTD2; not shown: His tag
T2 sequence (looked up): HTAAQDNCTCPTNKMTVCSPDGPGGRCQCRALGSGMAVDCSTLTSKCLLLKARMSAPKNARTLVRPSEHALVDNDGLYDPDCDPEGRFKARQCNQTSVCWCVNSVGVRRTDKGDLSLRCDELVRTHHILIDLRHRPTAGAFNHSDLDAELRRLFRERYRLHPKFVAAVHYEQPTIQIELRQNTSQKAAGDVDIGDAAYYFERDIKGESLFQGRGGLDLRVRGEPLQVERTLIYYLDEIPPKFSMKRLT


How the values were obtained:
[1] = target: T1, Human TROP2 Protein, His Tag (Acro …); assay: Octet (BLI); antigen and pH not given
[2] = target: T2, Human TROP2 Protein, His Tag (Acro …); assay: BLI (Octet) [1/2]
In short: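 Antibody variants from day-4 expression supernatants, diluted in 1×PBST pH 7.4 by expression level, captured on anti-human Fc tips. Association with 50 nM human TROP2-His in PBST pH 7.4 for 120 sec; dissociation in PBST pH 7.4 or pH 5.4 for 300 sec. Curves examined for koff at each pH versus parent antibody.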

Kd [1]	Octet response at 33.33 nM (Y-Axis) nm [1]	binding result [2]	Binder
3.4 nM	0.0911 nm	–	MYT11690 (antibody, V domains shown, IgG; also called Datopotamab LC variant) VH: QVQLVQSGAEVKKPGASVKVSCKASGYTFTTAGMQWVRQAPGQGLEWMGWINTHSGVPKYAEDFKGRVTISADTSTSTAYLQLSSLKSEDTAVYYCARSGFGSSYWYFDVWGQGTLVTVSS VL: DIQMTQSPSSLSASVGDRVTITCKASQDVSTAVAWYQQKPGKAPKLLIYSAHYRYTGVPSRFSGSGSGTDFTLTISSLQPEDFAVYYCQQHYITPLTFGQGTKLEIK
–	–	no binding (tested: 50 nM)	MYT11749 (antibody, V domains shown, hu7E6SVG variant, His at LCV position 29 (L1 06); screened as IgG in Expi293 supernatant) VH: QVQLQESGPGLVKPSETLSLTCTVSGGSISSYGVHWIRQPPGKGLEWIGVIWTSGVTDYNSALMGRVTISVDTSKNQFSLKLSSVTAADTAVYYCARDGDYDRYTMDYWGQGTLVTVSS VL: DIVMTQSPDSLAVSLGERATINCRASKSHSTSGYSYMHWYQQKPGQPPKLLIYLASNLESGVPDRFSGSGSGTDFTLTISSLQAEDVAVYYCQHSRELPYTFGQGTKLEIK
–	–	binds	MYT11755 (antibody, V domains shown, hu7E6SVG variant, His at LCV position 35 (L1 12); screened as IgG in Expi293 supernatant) VH: QVQLQESGPGLVKPSETLSLTCTVSGGSISSYGVHWIRQPPGKGLEWIGVIWTSGVTDYNSALMGRVTISVDTSKNQFSLKLSSVTAADTAVYYCARDGDYDRYTMDYWGQGTLVTVSS VL: DIVMTQSPDSLAVSLGERATINCRASKSVSTSGYHYMHWYQQKPGQPPKLLIYLASNLESGVPDRFSGSGSGTDFTLTISSLQAEDVAVYYCQHSRELPYTFGQGTKLEIK
–	–	binds	MYT11752 (antibody, V domains shown, hu7E6SVG variant, His at LCV position 32 (L1 09); screened as IgG in Expi293 supernatant) VH: QVQLQESGPGLVKPSETLSLTCTVSGGSISSYGVHWIRQPPGKGLEWIGVIWTSGVTDYNSALMGRVTISVDTSKNQFSLKLSSVTAADTAVYYCARDGDYDRYTMDYWGQGTLVTVSS VL: DIVMTQSPDSLAVSLGERATINCRASKSVSTHGYSYMHWYQQKPGQPPKLLIYLASNLESGVPDRFSGSGSGTDFTLTISSLQAEDVAVYYCQHSRELPYTFGQGTKLEIK
–	–	binds	MYT11750 (antibody, V domains shown, hu7E6SVG variant, His at LCV position 30 (L1 07); screened as IgG in Expi293 supernatant) VH: QVQLQESGPGLVKPSETLSLTCTVSGGSISSYGVHWIRQPPGKGLEWIGVIWTSGVTDYNSALMGRVTISVDTSKNQFSLKLSSVTAADTAVYYCARDGDYDRYTMDYWGQGTLVTVSS VL: DIVMTQSPDSLAVSLGERATINCRASKSVHTSGYSYMHWYQQKPGQPPKLLIYLASNLESGVPDRFSGSGSGTDFTLTISSLQAEDVAVYYCQHSRELPYTFGQGTKLEIK
–	–	binds	MYT11754 (antibody, V domains shown, hu7E6SVG variant, His at LCV position 34 (L1 11); screened as IgG in Expi293 supernatant) VH: QVQLQESGPGLVKPSETLSLTCTVSGGSISSYGVHWIRQPPGKGLEWIGVIWTSGVTDYNSALMGRVTISVDTSKNQFSLKLSSVTAADTAVYYCARDGDYDRYTMDYWGQGTLVTVSS VL: DIVMTQSPDSLAVSLGERATINCRASKSVSTSGHSYMHWYQQKPGQPPKLLIYLASNLESGVPDRFSGSGSGTDFTLTISSLQAEDVAVYYCQHSRELPYTFGQGTKLEIK
–	–	no binding (tested: 50 nM)	MYT11751 (antibody, V domains shown, hu7E6SVG variant, His at LCV position 31 (L1 08); screened as IgG in Expi293 supernatant) VH: QVQLQESGPGLVKPSETLSLTCTVSGGSISSYGVHWIRQPPGKGLEWIGVIWTSGVTDYNSALMGRVTISVDTSKNQFSLKLSSVTAADTAVYYCARDGDYDRYTMDYWGQGTLVTVSS VL: DIVMTQSPDSLAVSLGERATINCRASKSVSHSGYSYMHWYQQKPGQPPKLLIYLASNLESGVPDRFSGSGSGTDFTLTISSLQAEDVAVYYCQHSRELPYTFGQGTKLEIK
–	–	binds	MYT11753 (antibody, V domains shown, hu7E6SVG variant, His at LCV position 33 (L1 10); screened as IgG in Expi293 supernatant) VH: QVQLQESGPGLVKPSETLSLTCTVSGGSISSYGVHWIRQPPGKGLEWIGVIWTSGVTDYNSALMGRVTISVDTSKNQFSLKLSSVTAADTAVYYCARDGDYDRYTMDYWGQGTLVTVSS VL: DIVMTQSPDSLAVSLGERATINCRASKSVSTSHYSYMHWYQQKPGQPPKLLIYLASNLESGVPDRFSGSGSGTDFTLTISSLQAEDVAVYYCQHSRELPYTFGQGTKLEIK
